The values that follow come from article PMC3173369, “Mitochondrial Inhibitory Factor 1 (IF1) Is Present in Human Serum and Is Positively Correlated with HDL-Cholesterol” (PLoS ONE, 2011).

This data set concerns the molecule itself. Briefly: SDS-PAGE and Western blot after immunoprecipitation; 2 µg purified rIF1 immunoprecipitated with anti-IF1 antibodies cross-linked on protein A/G resin, eluted in 0.2 M glycine pH 2.8, boiled in Laemmli buffer with SDS and DTT, 15% SDS-PAGE, blot with anti-IF1; bands at the size of monomer and dimer.

B1: Recombinant human IF1 (mitochondrial Inhibitory Factor 1) (natural protein, UniProt Q9UII2-1 26-106, looked up)
chain: GSDQSENVDRGAGSIREAGGAFGKREQAEEERYFRAQSREQLAALKKHHEEEIVHHKKEIERLQKEIERHKQKIKMLKHDD
notes: mature peptide without the mitochondrial targeting signal, amplified from HeLa cell cDNA; Cloned at BamHI/HindIII into pBEn-SBP-SET1-Qa (Stratagene); also called rIF1; recombinant IF1
On to B1, for which the “stoichiometry N” value was determined as 2.
